Data taken from patent publication US7611721B1, “Adjuvant combination formulations” (priority 2000, dated 2009).

Experiments:
[1] = test system: Neisseria gonorrhoeae Porin B protein; assay: Vaginal wash anti-Porin B protein IgG and IgA titers; format: in vivo, Swiss-Webster mice; settings: Experiment 11; Swiss-Webster; starting dilution 1/5
Experimental: (§1) Outbred Swiss-Webster mice were divided into six groups of five mice each. Each group received 1 μg of recombinant Porin B protein (from strain FA1090 with 16 amino acids at the amino-terminus from a phage, followed by the mature form of the Porin B protein). […] Mice were immunized subcutaneously in the rump with a total volume of 0.2 ml. Immunizations were administered at week 0 and week 4.
(§2) Mice were bled the day prior to each immunization, and at 13 days after the final immunization. Serum was analyzed from pools from mice within groups. […] All day 0 pre-immunization titers were less than 50. The starting dilution for vaginal lavage analysis was 1/5.

T1SP10MN(A) (−Cys) [2] = settings: Experiment 3, 14 days after second immunization
Experimental: The protocols of Experiment 2 were followed, with Swiss-Webster mice used instead of Balb/c mice. Only reciprocal anti-peptide IgG endpoint titers and vaginal lavage endpoint reciprocal endpoint IgG and IgA antibody titers were measured in this experiment.
Reciprocal anti-T1SP10MN(A) (−Cys) IgG endpoint titers were measured from geometric means from individual Swiss-Webster mice (GMT), obtained 14 days after the second immunization. IgG1 and IgG2a subclass endpoint titers were also measured from pooled serum. For recipients of Freund's adjuvants, mice were primed with peptide emulsified in CFA, and boosted with IFA. […] Aqueous MPL™ was delivered at 50 μg per dose. Recombinant murine IL-12 was delivered at 40 ng/mouse. Recombinant murine GM-CSF was delivered at 10 μg/mouse.

[3] = test system: Neisseria gonorrhoeae Porin B protein; assay: Reciprocal anti-Porin B protein serum IgG endpoint subclass titers; format: in vivo, Swiss-Webster mice; settings: Experiment 11; pooled serum n=5 Swiss-Webster; 1 μg Porin B s.c. week 0 and 4
Experimental: Outbred Swiss-Webster mice were divided into five groups of ten mice each. Each group received 1 μg of recombinant Porin B protein (from strain FA1090 with 16 amino acids at the amino-terminus from a phage, followed by the mature form of the Porin B protein). […] Mice were immunized subcutaneously in the rump with a total volume of 0.2 ml, divided equally into each of two sites at the base of the tail/rump. Immunizations were administered at week 0 and week 4.
Mice were bled the day prior to each immunization, and at 13 days after the final immunization. Serum was analyzed from pools from mice within groups. […] All day 0 pre-immunization titers were less than 50.
Individual week 6 IgG titer geometric means against the recombinant Porin B protein were also determined.
as §1, §2

RSV F protein = settings: Experiment 14; pooled serum n=5 Balb/c; 3 μg F protein s.c. week 0 and 4
T1SP10MN(A) (−Cys) [4] = test system: T1SP10MN(A) (−Cys)
Experimental: Mice were immunized subcutaneously in the rump, in a total volume of 0.2 ml equally divided on each side of the tail. Immunizations were administered at varying time intervals, as indicated below. Antigen and cytokines were diluted in phosphate buffered saline to the appropriate concentrations and formulated with adjuvants less than 16 hours prior to immunization, under sterile conditions. Vaccines were mixed by gentle agitation, and stored at 4° C. Formulations were mixed by vortex immediately prior to immunization.
Animals were bled prior to initial immunization, and at indicated time points. Serum was analyzed from individual mice, or as pools from mice within groups.
For analysis of HIV peptide-specific antibody and subclass distribution, peptide was suspended in either carbonate buffer (15 mM Na2CO3, 35 mM NaHCO3, pH 9.6), or PBS, at a concentration of 1 μg/ml and plated to 96 well microtiter plates (Nunc) in a volume of 100:1. After overnight incubation at 37° C., plates were washed, and blocked (0.1% gelatin/PBS) at room temperature for 2-4 hours. ELISA plates were washed with wash buffer (PBS, 0.1% Tween™20) before addition of serially diluted serum (PBS, 0.1% gelatin, 0.05% Tween™20, 0.02% sodium azide). After a four hour incubation, wells were washed and appropriate dilutions of biotinylated anti-isotype/subclass antibodies were added for incubation at 4° C. overnight. Wells were washed and incubated with strepavidin-conjugated horseradish peroxidase. After incubation, wells were washed, and developed with ABTS. Wells were read at 405 nm. Titers were standardized using control sera.
Reciprocal anti-HIV peptide-specific IgG endpoint titers were measured from pooled serum (n=5 Balb/c) at the indicated time points after initial immunization. Mice were immunized subcutaneously in the rump with 25 μg of T1SP10MN(A) (−Cys), unless otherwise indicated, on day 0, and on day 27. For recipients of Freund's adjuvants, mice were primed with peptide emulsified in CFA, and boosted with IFA. MPL™ SE was provided as an emulsion containing 2% squalene oil and 50 μg MPL™ per dose. SE is an oil-in-water emulsion vehicle consisting of squalene, glycerol, and an emulsifying agent. Recombinant murine IL-12 was delivered at 50 ng/mouse. Recombinant murine GM-CSF was delivered at 10 μg/mouse.
Reciprocal endpoint IgG subclass titers were measured from pooled serum (n=5 Balb/c) six weeks after initial immunization, two weeks after secondary immunization. Mice were immunized subcutaneously in the rump with 25 μg of peptide, unless otherwise indicated. For recipients of Freund's adjuvants, mice were primed with peptide emulsified in complete Freund's adjuvant, and boosted with incomplete Freund's adjuvant on weeks four and six. MPL™ SE was provided as an emulsion containing 2% squalene oil and 50 μg MPL™ per dose. SE is an oil-in-water emulsion vehicle consisting of squalene, glycerol, and an emulsifying agent. Recombinant murine IL-12 was delivered at 50 ng/mouse. Recombinant murine GM-CSF was delivered at 10 μg/mouse.
Mice were immunized subcutaneously in the rump, in a total volume of 0.2 ml equally divided on each side of the tail. Immunizations were administered on days 0 and 21 with 25 μg of the HIV peptide, together with the indicated amount of adjuvant(s).
Reciprocal anti-peptide IgG endpoint titers were measured from either geometric means from individual mice (GMT) or from pooled serum (n=5 Balb/c), obtained 14 days after the second immunization. IgG1 and IgG2a subclass endpoint titers were also measured from pooled serum.

spleen cells = assay: Secretion of interferon-gamma by spleen cells (ELISA); format: cell-based, Balb/c mice; settings: for Secretion of Interferon-gamma, Con A 1 μg/ml: Experiment 1
Experimental: For proliferation assays and in vitro cytokine analysis, spleen cells were obtained from mice at the indicated time points. Single cell suspensions were prepared from pools of 3-5 mice as indicated in Results. For proliferation and cytokine analysis, cells were suspended in round bottom 96 well culture plates precoated overnight with HIV peptide antigens, control proteins, or RPMI-10 only. Spleen cells were added at 5×10^5 cells/well using culture medium having 2× supplements. Cell culture supernatants were harvested from triplicate wells for cytokine analysis three or six days after culture initiation. Immediately after supernatant harvest, cultures were pulsed with ^3H-thymidine for 18-24 hours, and harvested to quantify cell proliferation.
For cytokine analysis, cell culture supernatants were added to wells coated with BVD6-11B11 (for anti-IL4), or R4-6A2 (for interferon-gamma). After incubation and washing, wells were developed using biotin-labeled BVD6-24G2 (for IL4) or XMG 1.2 (for interferon-gamma). The concentration of cytokines was determined using a standard curve prepared from recombinant murine interferon-gamma or interleukin-4. All cytokine reagents were purchased from Pharmingen (San Diego, Calif.).
Interferon-gamma secreted into culture by spleen cells stimulated with 25 μg T1SP10MN(A) (−Cys). Spleen cells were harvested from pools of five Balb/c female mice and cultured with the indicated antigenic stimuli (the same as in Example 6) for either three or six days. Interferon-gamma levels were determined by ELISA, and compared to a standard having a known concentration. Blank wells indicate that the assay could not detect Interferon-gamma from those culture conditions. The lower limit of detection sensitivity was 4 picograms/ml.
Cells were cultured for a total of 96 hours. Cell culture supernatants were analyzed for interferon-gamma by ELISA. All values were after subtraction from those determined from supernatants of cells stimulated with 10 μg of lysozyme. Results which were below the limit of detection, after subtraction from stimulation induced with lysozyme are indicated as “bd”. The adjuvants were the same as those in Example 12.

[5] = Experiment 1, pooled serum n=5 Balb/c, 25 μg peptide s.c. day 0 and 27
[6] = Experiment 1, pooled serum n=5 Balb/c, six weeks after initial, two weeks after secondary immunization, 25 μg peptide
[7] = Experiment 2, pooled serum n=5 Balb/c, 14 days after second immunization
[8] = Experiment 4, individual Balb/c mouse, day 41, 13 days after secondary immunization (days 0 and 28)
[9] = Experiment 4, pooled serum n=5 Balb/c, day 41, 13 days after secondary immunization
[10] = Experiment 2, 96 hours culture, after subtraction of lysozyme value, bd = below limit of detection

Sequence of RSV F protein (P03420 137-574): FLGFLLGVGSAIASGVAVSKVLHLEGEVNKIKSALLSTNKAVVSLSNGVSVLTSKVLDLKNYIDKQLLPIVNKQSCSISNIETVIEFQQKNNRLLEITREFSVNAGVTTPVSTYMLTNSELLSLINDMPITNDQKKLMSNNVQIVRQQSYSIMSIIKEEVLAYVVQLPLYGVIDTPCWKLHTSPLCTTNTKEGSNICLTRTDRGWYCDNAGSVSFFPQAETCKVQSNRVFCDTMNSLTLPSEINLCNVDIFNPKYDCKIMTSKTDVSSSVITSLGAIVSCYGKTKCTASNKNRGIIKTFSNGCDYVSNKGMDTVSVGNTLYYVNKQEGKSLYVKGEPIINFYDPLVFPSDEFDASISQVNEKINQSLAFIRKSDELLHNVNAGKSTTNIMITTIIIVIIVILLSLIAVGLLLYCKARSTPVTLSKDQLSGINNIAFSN

B1: rIL-12: Recombinantly expressed murine IL-12 (Genetics Institute) (protein, UniProt P43431 23-215; P43432 23-335, looked up)
Interleukin-12 subunit alpha: RVIPVSGPARCLSQSRNLLKTTDDMVKTAREKLKHYSCTAEDIDHEDITRDQTSTLKTCLPLELHKNESCLATRETSSTTRGSCLPPQKTSLMMTLCLGSIYEDLKMYQTEFQAINAALQNHNHQQIILDKGMLVAIDELMQSLNHNGETLRQKPPVGEADPYRVKMKLCILLHAFSTRVVTINRVMGYLSSA
Interleukin-12 subunit beta: MWELEKDVYVVEVDWTPDAPGETVNLTCDTPEEDDITWTSDQRHGVIGSGKTLTITVKEFLDAGQYTCHKGGETLSHSHLLLHKKENGIWSTEILKNFKNKTFLKCEAPNYSGRFTCSWLVQRNMDLKFNIKSSSSSPDSRAVTCGMASLSAEKVTLDQRDYEKYSVSCQEDVTCPTAEETLPIELALEARQQNKYENYSTSFFIRDIIKPDPPKNLQMKPLKNSQVEVSWEYPDSWSTPHSYFSLKFFVRIQRKKEKMKETEEGCNQKGAFLVEKTSTEVQCKGGNVCVQAQDRYYNSSCSKWACVPCRVRS
Vaginal Wash IgA titer, anti-Porin B Protein [1]: 5
Vaginal Wash IgG titer, anti-Porin B Protein [1]: 93
Reciprocal anti-HIV peptide IgG (GMT) endpoint titer (T1SP10MN(A) (−Cys) [2]; individual Swiss-Webster mice): 500
Reciprocal anti-HIV peptide IgG1 (pool) endpoint titer (T1SP10MN(A) (−Cys) [2]; pooled serum Swiss-Webster): <1000
Reciprocal anti-HIV peptide IgG2a (pool) endpoint titer (T1SP10MN(A) (−Cys) [2]; pooled serum Swiss-Webster): <1000
Reciprocal anti-Porin B Protein IgG1 endpoint titer, Week 3 [3]: 2,578
Reciprocal anti-Porin B Protein IgG1 endpoint titer, Week 6 [3]: 6,278
Reciprocal anti-Porin B Protein IgG2a endpoint titer, Week 3 [3]: 2,071
Reciprocal anti-Porin B Protein IgG2a endpoint titer, Week 6 [3]: 58,552
Reciprocal anti-Porin B Protein IgG endpoint titer, Week 3 [3]: 7,266
Reciprocal anti-Porin B Protein IgG endpoint titer, Week 6 [3]: 571,325
Reciprocal anti-RSV F Protein IgG1 endpoint titer, Week 3 (RSV F protein): 3,442
Reciprocal anti-RSV F Protein IgG1 endpoint titer, Week 6 (RSV F protein): 1,345,099
Reciprocal anti-RSV F Protein IgG2a endpoint titer, Week 3 (RSV F protein): 500
Reciprocal anti-RSV F Protein IgG2a endpoint titer, Week 6 (RSV F protein): 65,951
Reciprocal anti-RSV F Protein IgG endpoint titer, Week 3 (RSV F protein): 13,557
Reciprocal anti-RSV F Protein IgG endpoint titer, Week 6 (RSV F protein): 4,459,059
Reciprocal anti-T1SP10MN(A) (-Cys) IgG endpoint titer, WEEK 4 (T1SP10MN(A) (−Cys) [4]; [5]): <100
Reciprocal anti-T1SP10MN(A) (-Cys) IgG endpoint titer, WEEK 6 (T1SP10MN(A) (−Cys) [4]; [5]): <100
Reciprocal anti-T1SP10MN(A) (-Cys) IgG endpoint titer, WEEK 8 (T1SP10MN(A) (−Cys) [4]; [5]): <100
Reciprocal anti-T1SP10MN(A) (-Cys) IgG1 endpoint titer (T1SP10MN(A) (−Cys) [4]; [6]): <100
Reciprocal anti-T1SP10MN(A) (-Cys) IgG2a endpoint titer (T1SP10MN(A) (−Cys) [4]; [6]): <100
Reciprocal anti-T1SP10MN(A) (-Cys) IgG2b endpoint titer (T1SP10MN(A) (−Cys) [4]; [6]): <100
Reciprocal anti-T1SP10MN(A) (−Cys) IgG (GMT) endpoint titer (T1SP10MN(A) (−Cys) [4]; Experiment 2, geometric mean of individual Balb/c mice, 14 days after second immunization): 500
Reciprocal anti-T1SP10MN(A) (−Cys) IgG1 (pool) endpoint titer (T1SP10MN(A) (−Cys) [4]; [7]): <1000
Reciprocal anti-T1SP10MN(A) (−Cys) IgG2a (pool) endpoint titer (T1SP10MN(A) (−Cys) [4]; [7]): <1000
Reciprocal anti-T1SP10MN(A) (−Cys) IgG (pool) endpoint titer (T1SP10MN(A) (−Cys) [4]; Experiment 2, pooled serum n=5 Balb/c, immunized days 0 and 21, 14 days after second immunization): <1000
IgG serum titer specific for T1SP10MN(A) (−Cys), Mouse #1 (T1SP10MN(A) (−Cys) [4]; [8]): 594
IgG serum titer specific for T1SP10MN(A) (−Cys), Mouse #2 (T1SP10MN(A) (−Cys) [4]; [8]): 50
IgG serum titer specific for T1SP10MN(A) (−Cys), Mouse #3 (T1SP10MN(A) (−Cys) [4]; [8]): 50
IgG serum titer specific for T1SP10MN(A) (−Cys), Mouse #4 (T1SP10MN(A) (−Cys) [4]; [8]): 50
IgG serum titer specific for T1SP10MN(A) (−Cys), Mouse #5 (T1SP10MN(A) (−Cys) [4]; [8]): 50
Geometric Mean IgG serum titer specific for T1SP10MN(A) (−Cys), GMT (T1SP10MN(A) (−Cys) [4]; Experiment 4, n=5 Balb/c, day 41, 13 days after secondary immunization): 82
Reciprocal anti-T1SP10MN(A) (−Cys) IgG1 endpoint titer (T1SP10MN(A) (−Cys) [4]; [9]): <100
Reciprocal anti-T1SP10MN(A) (−Cys) IgG2a endpoint titer (T1SP10MN(A) (−Cys) [4]; [9]): <100
Reciprocal anti-T1SP10MN(A) (−Cys) IgG2b endpoint titer (T1SP10MN(A) (−Cys) [4]; [9]): <100
Secretion of Interferon-gamma, Con A 1 μg/ml (spleen cells; Six Day Cultures): 8.4 picograms/ml
Secretion of Interferon-gamma, Con A 1 μg/ml (spleen cells; Three Day Cultures, detection limit 4 picograms/ml): 5.9 picograms/ml
Secretion of Interferon-gamma, Con A 5 μg/ml (spleen cells; Experiment 2, 96 hours culture, after subtraction of lysozyme value): 179 units/ml
Secretion of Interferon-gamma, HIV Peptide 1.1 μg/ml (spleen cells; [10]): 41 units/ml
Secretion of Interferon-gamma, HIV Peptide 3.3 μg/ml (spleen cells; [10]): 2 units/ml
Secretion of Interferon-gamma, HIV Peptide 10 μg/ml (spleen cells; [10]): 4 units/ml
